# According to the nanobody polyreactivity screen of Harvey et al. (2022):
# Experiment: yeast display, Sf9 membrane polyspecificity reagent, FACS + sequencing; frameworks hold sequencing errors
# Summary of the method: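 Genes from sorted yeast were amplified by colony PCR, read by MiSeq 2 × 250 sequencing and filtered on CDR length. These cells carried a synthetic nanobody library in Saccharomyces cerevisiae BJ5465 and were sorted by FACS into low and high (top ~1%) gates on anti-HA and streptavidin fluorescence. Polyreactivity is labelled according to the gate of origin.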
row,Sequence,polyreactivity (PSR sort gate)
1,QVQLVESGGGLVQAGGSLRLSCAASGFTFDSYDMGGYRQAPGKERVLVAAITWSGGSTYYADSVKGRFTISRDYAKNTVYLQMNSLKPEDTAVYYGNADTGTYWVPWYHDGYDYWGQGTQVTVSS,low polyreactivity
2,QVQLVESGGGLVQAGGSLRLSCAASGFTFDTNAMGWYRQAPGKERELVAAISWGGDTTYYADSVKGRFTISRDNAKNTVYLQMNSLKTEDTAVYYCNVYWYDWWGYDYWGQGTQVTVSS,high polyreactivity
3,QVQLVESGGGLVQAGGSLRLSCAASGFTFDTYAMGWSRQAPGKERELVAAISSSGGSTYYADSVKGRFTISRDNAKNTVYLQMNSLKPEDTAVYYCNAYYRYSRGYDYWGQGTQVTVSS,high polyreactivity
4,QVQLVESGGGLVQAGGSLRLSCAASGFTFDTYAMGWYRQAPGKERELVAAISWGGGSTFYADSVKGRFTISRDNAKNTVYLQMNSLKPEDTAVYYCAAEIPGYYVFNYGYWYYEYDYWGQGTQVTVSS,high polyreactivity
5,QVQLVESGGGLVQAGGSLRLSCAASGFTFDTYTMGWYRQAPGKERELVAAISSGGNTNYADSVKGRFTISRDNAKNTVYLQMNSLKPEDTAVYYCARGATLLQYSYWGVYEYDSWGQGTQVTVSS,low polyreactivity
6,QVQLVESGGGLVQAGGSLRLSCAASGFTFDYNAMGWYRQAPGKEREFVAAISSNGGSTYYADSVKGRFTISRDNAKNTVYFQMNSLKPEDTAVYYCAARYRSFVYWYGYWGQGTQVTVSS,high polyreactivity
7,QVQLVESGGGLVQAGGSLRLSCAASGFTFDYNGLGWYRQAPGKERELVAGIRWSGGSTYYADSVKGRFTISRDNAKNTVYLQMNSLKPEDTAVYYCATSQYGYRSWPGLYYWGQGTQVTVSS,low polyreactivity
8,QVQLVESGGGLVQAGGSLRLSCAASGFTFDYYTMGWYRQAPGKEREFVAAITWNGGTTNYADSVKGRFTISRDNAKYTVYLQMNSLKPEDTAVYYCAATAYWYFSNDSGRSYDYWGQGTQVTVSS,low polyreactivity
9,QVQLVESGGGLVQAGGSLRLSCAASGFTFEGNAMGWYRQAPGKEREFVAAITSNGGGTYYADSVKGRFTISRDNAKNTVYLQMNSLKPEDTAVYDCAATYWTWYSWYDYWGQGTQVTVSS,high polyreactivity
10,QVQLVESGGGLVQAGGSLRLSCAASGFTFEIYAMGWYRQAPGKERELVAAITWSGGSTDYADSVKGRFTISRDNAKNSVYFQMNSLKPEDTAVYYCAAVTVQYVGYGYWGQGTQVTVSS,low polyreactivity
11,QVQLVESGGGLVQAGGSLRLSCAASGFTFERYTMGWYIQAPGKERELVATISRRSGRTSYADSVKGRFTISRDNAKNTVYLQMNSLKPEDTEVYYCAVDYAYPDRYDYWGQGTQVTVSS,high polyreactivity
12,QVQLVESGGGLVQAGGSLRLSCAASGFTFETNAMGWYRQEPGQERELVAAISYSGGSTYYADSVKGRFTISRDNAKNTVYLQMNSLKPEDNAVYYCNKYYRGIFKAHRDYWGQGTQVTVSS,low polyreactivity
13,QVQLVESGGGLVQAGGSLRLSCAASGFTFEYYALGWYRPAPGKERELVAAITYSGGSTYYADSVKGRFTISRDNAKITVYLQLNSLKPEDTAVYYCATESPRYRLYQSAVYGYFYWGQGTQVTVSS,high polyreactivity
14,QVQLVESGGGLVQAGGSLRLSCAASGFTFFDYVMGWYRQAPGKERELVAAISSSGGSTNYADSVKGRFTISRDNAKNTVYLQMNSLKPQDTAVYYCAAEDFWDDVEYWGQGTQVTVSS,low polyreactivity
15,QVQLVESGGGLVQAGGSLRLSCAASGFTFFKYAMGGYRQAPGKERELVAAITRNGGRTYYADSVKGRFTISRDNAKNTVYLHMNSLKPEDTAVYYCNAASVNGGRDFDYWGQGTQVTVSS,high polyreactivity
16,QVQLVESGGGLVQAGGSLRLSCAASGFTFFMYAMGGDRQAPGKEREFVASITGSGGSTYYADSVKGRFTISRDTAKNSVYLQMNSLKPEDTAVYYCNKLSYGRSGYWGQGTQVTVSS,high polyreactivity
17,QVQLVESGGGLVQAGGSLRLSCAASGFTFFPNAMGWYRQAPGKERELVADITDGGSTNYADSVKGRFTISRDNAKNTVYLQLNSLKPEDTADYYCNADWYGWFGGYEYWGQGTQVTVSS,high polyreactivity
18,QVQLVESGGGLVQAGGSLRLSCAASGFTFFQNHRGWYRQAPGTERELVADISYRGRRPYYADSVKGRFTISRDNAKNTVYLQMNCLKPVDTAVYYCARRSSKPSSIQYYYCGQGTQVTVSS,high polyreactivity
19,QVQLVESGGGLVQAGGSLRLSCAASGFTFFRNAIGWYRQAPGKERELVAAISGSGGSTYYADSVKGRFTISRDNAKNTVYLQMNSLKPEDTAVYYCAARTSYYVYRHPSGRYDYWGQGTQVTVSS,low polyreactivity
20,QVQLVESGGGLVQAGGSLRLSCAASGFTFFYNAMGRYRQAPGKEREFVAAISGRGGTTYYADSVKGRFTISRDNAKNTVYLEMNSLKPEDTAVYYCAARSVSTLRYTSCKLSDDYWGQGTQVTVSS,high polyreactivity
21,QVQLVESGGGLVQAGGSLRLSCAASGFTFFYYAMGWYRQAPGKERELVASISWSGGSTYYADSVKGRFTISRDNAKNTVYLQMNSLKPEDTAVYYCAADVPFGGDYWGQGTQVTVSS,low polyreactivity
22,QVQLVESGGGLVQAGGSLRLSCAASGFTFGANAMGWYRQAPGKERELVAAITKRGGNTYYADSVKGRFTISRDNAKNTVYLQMNSLKPEDTAVYYCARDYTHGYDYWGQGTQVTVSS,high polyreactivity
23,QVQLVESGGGLVQAGGSLRLSCAASGFTFGANDMGWYRQAPGKERELVATISSSGGTTYYADSVKGRFTISRDNAKNTVYLQMNSLKPEDTAVYYCAAKGLFTGRVSRYADDHCGQGTQVTVSS,low polyreactivity
24,QVQLVESGGGLVQAGGSLRLSCAASGFTFGANVMGWYRQAPGKERQLVAGITWSGDSTYYADSVKGRFTISRDNAKNTVYLQMNSLKPEDTAVYYCAADVYDGEYILDYDYWGQGTQVTVSS,low polyreactivity
25,QVQLVESGGGLVQAGGSLRLSCAASGFTFGAYAMGWYRQAPGKERELVAAITWSGSSTYYADSVKGRFTISRDNAKNTVYLQMNSLKPEDTAVYYCNVQDKGYVSYYGGDSWGQGTQVTVSS,high polyreactivity
26,QVQLVESGGGLVQAGGSLRLSCAASGFTFGAYAMGWYRQAPGKERELVASISWSGGSTYYADSVKGRFTISRDNAKNTVYLQLNSLKPEDTAVYYCNKDFVYPDDDGLFDYWGQGTQVTVSS,low polyreactivity
27,QVQLVESGGGLVQAGGSLRLSCAASGFTFGDYAMGWYRQAPGIERELVAAIRSGGSTNYADSVKGRFTISRDNAKNTVYLQMNSLNPEDTAVYYCAAEWPHGQGAWSFFCRDSWGQGTQVTVSS,low polyreactivity
28,QVQLVESGGGLVQAGGSLRLSCAASGFTFGFYAMGWSRQATGKERELVARISYSGGSTYYADSVKGRFTISRDNAKNTVYLQMNSLKPEDTAVYYCNRGYRRLQEDYWGQGTQVTVSS,high polyreactivity
29,QVQLVESGGGLVQAGGSLRLSCAASGFTFGFYAMGWYRQAPGKERELVAAITSGGGTTYYADSVKGRFTISRDNAKNTVYLQMNSLKPEYTAVYYCNADPDVPFFSWLTGRGTYDYWGQGTQVTVSS,low polyreactivity
30,QVQLVESGGGLVQAGGSLRLSCAASGFTFGGNDMGWYRQAPGKERELVAAISWSGGSTYYADSVKGRFTISRDNAKNTVYLLMNSLKPEDTAVYYCAADYYYGKVHFDYWGQGTQVTVSS,low polyreactivity
